The experiment concerns the target rabbit skeletal muscle G-actin (rabbit) (UniProt P68135). Briefly: SPR.

Kd data for 2 substances are collected here from article PMC7357845.

As to “His-tagged ZASP-S WT (N21 His-tag) (from UniProt O75112-6 1-283) (natural protein)”, the Kd (in general, a measure of binding affinity in units of concentration) came to 2 nM.
“untagged ZASP-S WT (from UniProt O75112-6 1-283) (natural protein)” yielded a Kd of 62 nM.
